# Laboratory results taken from paper PMC9764456 (Cell reports, 2022).
# B1: peroxiredoxin PRDX2 (enzyme, human (endogenous in RBCs), UniProt P32119 1-198, looked up)
# chain: MASGNARIGKPAPDFKATAVVDGAFKEVKLSDYKGKYVVLFFYPLDFTFVCPTEIIAFSNRAEDFRKLGCEVLGVSVDSQFTHLAWINTPRKEGGLGPLNIPLLADVTRRLSEDYGVLKTDEGIAYRGLFIIDGKGVLRQITVNDLPVGRSVDEALRLVQAFQYTDEHGEVCPAGWKPGSDTIKPNVDDSKEYFSKHN
# Target: the molecule itself
# Assay: negative stain electron microscopy
protein,measurement,value
B1,stoichiometry N,10
